Key:
[1] = molecular target: T1, GST-Kic1(1-359)-His6 (wild type) (S. cerevisiae) (UniProt P38692)
T1 sequence: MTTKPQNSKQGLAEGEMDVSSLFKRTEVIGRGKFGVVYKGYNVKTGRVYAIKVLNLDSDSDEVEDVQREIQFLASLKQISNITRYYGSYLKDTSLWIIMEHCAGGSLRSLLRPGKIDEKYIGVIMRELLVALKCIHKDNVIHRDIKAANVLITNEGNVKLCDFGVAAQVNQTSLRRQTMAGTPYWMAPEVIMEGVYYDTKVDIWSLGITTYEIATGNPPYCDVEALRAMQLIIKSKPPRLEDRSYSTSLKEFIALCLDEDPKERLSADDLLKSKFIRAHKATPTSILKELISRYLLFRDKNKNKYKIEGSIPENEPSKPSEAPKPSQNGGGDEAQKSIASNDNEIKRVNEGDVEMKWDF

[2] = molecular target: T1, GST-Kic1(1-359)-His6 (wild type) (S. cerevisiae); remark: listed apart in the source

B1: Hym1-His6 (full length, GST cleaved) (natural protein)
chain: MFKKYKNQDLDMAFWWKKNPKTPSDYARLIIEQLNKFSSPSLTQDNKRKVQEECTKYLIGTKHFIVGDTDPHPTPEAIDELYTAMHRADVFYELLLHFVDLEFEARRECMLIFSICLGYSKDNKFVTVDYLVSQPKTISLMLRTAEVALQQKGCQDIFLTVGNMIIECIKYEQLCRIILKDPQLWKFFEFAKLGNFEISTESLQILSAAFTAHPKLVSKEFFSNEINIIRFIKCINKLMAHGSYVTKRQSTKLLASLIVIRSNNALMNIYINSPENLKLIMTLMTDKSKNLQLEAFNVFKVMVANPRKSKPVFDILVKNRDKLLTYFKTFGLDSQDSTFLDEREFIVQEIDSLPRIISSTTEVSNNNASSSNVASITSPSSVMNNQSSILTHSTSPDSR
B1 was tested, and the half maximal activation (Kact) of Kic1 kinase activity (32P transferred to GST-Cbk1(673-756)-His6); Hym1 in 2-fold serial dilutions from 13 µM, Kic1 constant at 0.5 µM [1] was 2 µM and the Kic1 kinase activity (reaction rate over 15 min on GST-Cbk1(673-756)-His6) with Hym1 relative to without Hym1 [2] was over 5 fold.

Source: PMC3804511
